The supplement of paper PMC9170038

Assays:
[1] = test system: MS2 coat protein; test: apparent KD of MS2 coat protein, switch OFF state (with FMN for OFF switches, without FMN for ON switches); designed switch direction (-1 OFF switch, 1 ON switch): -1; higher = weaker reporter binding; details: FMN input: 0 or 200 uM; Eterna round: R93 (includes R88 designs)
Procedure, shortened: (§1)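 With or without constant ligand, designed RNA switches in 100 mM Tris-HCl pH 7.5, 80 mM KCl and 4 mM MgCl2 were titrated with SNAP-549-labelled MS2 coat protein. Concentrations went up in twofold steps from 0.7 or 1.5 nM to 3 µM. The switches had been transcribed on-chip from Illumina sequencing clusters, and apparent KD is the per-design median of normalised cluster binding-curve fits.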

[2] = test system: MS2 coat protein; test: apparent KD of MS2 coat protein, switch ON state; designed switch direction (-1 OFF switch, 1 ON switch): -1; higher = weaker reporter binding; details: FMN input: 0 or 200 uM; Eterna round: R93 (includes R88 designs)
Procedure, shortened: as §1

| Sequence | apparent KD of MS2 coat protein [1] | apparent KD of MS2 coat protein [2] |
| --- | --- | --- |
| AUAAAGUCAGGAUAUGUAAAAAUAACGAAAGUUAUAAAUAAACAGAAGGGACAUGAGGAUCACCCAUGUGGAAU [Meechl MS2 EX4 62% 3] | 75 nM | 54.2 nM |
| AUAAUCCUAGGAUAUACAUGGAUAUACAUUCAUGUGGACCUACAUGAGGAUCACCCAUGUAGAAGGAGGAUGAA [Mat - Same state - Mayanna Mod - D138] | 39.5 nM | 35 nM |
| AUAAUGCGAGGAUAUACAUGAGGAUCACCCAUGUAAAUAAAUAGGAGAGCCACAUUAAGUAGAAGGUGCAUUAA [JR_Exc003_Sub501] | 84.7 nM | 32.8 nM |
| AUAGGCCUAGGAUAUACAUGAGGAUCACCCAUGUUAACACUUCAAUCAAGUUAAUAGUGUAGAAGGAGGAAUAA [JR_Exc003_Sub308] | 31.5 nM | 29.3 nM |
| AUAGUACAUGAGGAUCACCCAUGUCAGGAUAUUGGAUAUGACAUAAAAAAAAUGUUAACGAGAAGGGACUAUAA [EX1 Malc#16] | 27.7 nM | 29.2 nM |
| AUAUAACAUGAGGAUCACCCAUGUCAGGAUAUCGAACCCAACACAACCAAAAUGUCGGCGAGAAGGGACAAAAA [Default title] | 22.6 nM | 27.5 nM |
| AUCAUGUAAGGAUAUGUAAGAAAAGAAAAGAAAGAAAAGAAACAGAAGGUACAUGAGGAUCACCCAUGUAAGAA [EteRNA is fun!] | 34.5 nM | 26.5 nM |
| AUCAUGUAAGGAUAUUCAAGAAAAGAAAAGAAAGAAAAGAAGAAGAAGGUACAUGAGGAUCACCCAUGUAAGAA [EteRNA is fun!] | 64.2 nM | 42.5 nM |
| AUGUACCUAGGAUAUACAUGAGGAUCACCCAUGUUCCGGGAGCAAUCAAGUUAAUAUUGUAGAAGGAGGUGAAA [JR_Exc003_Sub314] | 28.4 nM | 16 nM |
| AUGUAGGUAGGAUAUGCAUAGAUACAGAUUCAUGUGGAACUACAUGAGGAUCACCCAUGUAGAAGGACCUAAAA [Mat - Same state - Mayanna Mod - D126] | 30 nM | 20.2 nM |
| CACGUACAUGAGGAUCACCCAUGUUAGGAUAUGCCGGGUAAGAGAAAACUAAAAAUCCGCAGAAGGGACGAAAC [Bilbo Confounded 15 - Jieux - Exclusion 1] | 33.8 nM | 32 nM |
| CAGUACUGAGGAUAUACAUGAGGAUCACCCAUGUGAAAAAGCUACGAAAGUAGCAAAUGUAGAAGGCAGUACUG [Ex3: 806] | 273 nM | 28.9 nM |
| CAUAGGCGAGGAUAUACAUGAGGAUCACCCAUGUAAGGAAACCUGGCAGACUCAGAAUGUAGAAGGCGCACUGA [Ex3_Neo] | 32.5 nM | 17.1 nM |
| CCCAUGUCAGGAUAUCAGUAGUAAAAAAAAAAAAUUACUACUGAGAAGGGACAUGAGGAUCACCCAUGUCACUU [EX4 320: Super Stable 20] | 53.2 nM | 74.9 nM |
| CGGAGGAAAGGAUAUACACAAUAAAAGAAGUGAUCCUUGAGACAUGAGGAUCACCCAUGUAGAAGGUUCACUGA [Zaza] | 15.9 nM | 21.9 nM |
| CGUUGGCGAGGAUAUACAUGAGGAUCACCCAUGUGAGAGAAAAAAGUGAGAAAGAAAAGUAGAAGGCGCUGACU [salish99-ex3-11] | 132 nM | 43.6 nM |
| CUAAAGCGAGGAUAUACAAUAAAAGGGAAUAAGGGAAAAAAACAUGAGGAUCACCCAUGUAGAAGGCGCCGAAA [Ex 2 #1] | 26.5 nM | 25.6 nM |
| CUCAAGUAAGGAUAUACAAGAAAAGAAGAGAAAGAAAAGAAGUAGAAGGUACAUGAGGAUCACCCAUGUAAGAA [EteRNA is fun!] | 22.2 nM | 26.7 nM |
| CUCAAGUAAGGAUAUCAAAGAAAAGAAGAGAAAGAAAAGAAUGAGAAGGUACAUGAGGAUCACCCAUGUAAGAA [EteRNA is fun!] | 23 nM | 35.2 nM |
